Source: PMC3617294, “Novel Tryptophan Metabolism by a Potential Gene Cluster That Is Widely Distributed among Actinomycetes” (The Journal of Biological Chemistry, 2013)

How the values were obtained:
SCO7468 = SCO7468 (Streptomyces coelicolor, UniProt Q8CJJ9); test: methanol denaturation and reverse-phase HPLC of co-purified flavin; type: binding; details: tightly bound
purified protein [1] = substrate: N[C@@H](Cc1c[nH]c2ccccc12)C(=O)O; test: purified protein; type: biochemical, Streptomyces coelicolor; details: DMAPP 1 mM fixed, 2 mM MgCl2, 100 mM Tris-HCl pH 8.0, 30 °C
purified protein [2] = substrate: CC(C)=CCOP(=O)(O)OP(=O)(O)O; test: purified protein; type: biochemical, Streptomyces coelicolor; details: L-tryptophan 1 mM fixed, 2 mM MgCl2, 100 mM Tris-HCl pH 8.0, 30 °C
[3] = substrate: CC(C)=CCc1ccc2[nH]cc(C[C@H](N)C(=O)O)c2c1; test: LC-MS/MS quantification of aldoxime product (5-DMAIAOx); type: biochemical, Streptomyces coelicolor; details: 1 mM NADPH, 20 μM FAD, 100 mM Tris-HCl pH 8.0, 30 °C
[4] = substrate: N[C@@H](Cc1c[nH]c2ccccc12)C(=O)O; test: LC-MS/MS quantification of aldoxime product (IAOx); type: biochemical, Streptomyces coelicolor; details: 1 mM NADPH, 20 μM FAD, 100 mM Tris-HCl pH 8.0, 30 °C

With `Cc1cc2nc3c(=O)[nH]c(=O)nc-3n(C[C@H](O)[C@H](O)[C@H](O)COP(=O)(O)OP(=O)(O)OC[C@H]3O[C@@H](n4cnc5c(N)ncnc54)[C@H](O)[C@@H]3O)c2cc1C` [FAD] the “methanol denaturation and reverse-phase HPLC of co-purified flavin” value (SCO7468) was “FAD existed in the recombinant SCO7468 protein as a tightly bound form”.

B1: SCO7467 (Streptomyces coelicolor A3(2)) (protein)
chain: MRAASTGADPQDASTLGSFTGGQLRRLGSVAGLSRADVETYAQVLTDALGPVAQRPLSLAPPTRTFLSDDHTPVEFSLSFRPGAAPAMRVLVEPGCGATSLADNGRAGLEAVRTMARRWHFTTDALDELLDLFLPPAPQGPLALWCALELRPGGVPGVKVYLNPAVGGEERSAATVREALRRLGHHQAFDSLPQGSGYPFLALDLGNWTEPRAKVYLRHDNLTAGRAARLSRTDSGLVPTAVEGFFRTAAGPGSDAGGLDGRPAQSCHSFTDPGAERPSGFTLYIPVRDYVRHDGEALARASTVLHHHGMDASVLHRALAALTERRPEDGVGLIAYLALAGQRDQPPRVTAYLSSEAYTVRPPVVETVRQPLSVG
notes: N-terminal His8 tag (pHIS8), expressed in E. coli BL21(DE3), Ni-NTA purified, 40 kDa, monomer
For B1, the Km (purified protein [1]) was 80 ± 6 µM, the kcat (purified protein [1]) was 0.40 ± 0.1 s⁻¹ and the Km (purified protein [2]) was 50 ± 2 µM. The kcat (purified protein [2]) was 0.40 ± 0.1 s⁻¹.

B2: SCO7468 (Streptomyces coelicolor A3(2)) (protein)
chain: MRVCVIGAGLSGLAMGHALKERGISFVCLEKAPDVGGIWRQPGAGERGPGYQSLHLNTARQLTGYADFPMPSDYPLYPRHDQVAAYLRSFAEWAGLLDHVELRTEVLSVRQDSDGSWTVVSRDADGAQSARRFEQVVVASGHHTDPALPDPLPAGADSFAGTILHSLDYRDGGDFAGRRVVVVGLGASAVDIAADLSRHAERTLLSVRRGLHIVPKQVFGMSLDEIAEAPWWNEMPFAERRRWVEQALLVARGRLSDYGLPEPDHPILSSATTLSDEILSRIRHGAVTPKPAIASFESDRVVFTDGSSEAADTVVYCTGFHMTFPFLPPGCPVAADGAVELYRRIVPADRPGLYFVGLVRPAGALTRLVEAQAQWVARLVDGAAALPGTEEMREEISTYLAGIVERYGRTRGASIQVDVSPYLAEFREPLPV
With B2 the Km [3] was 0.57 ± 0.1 µM, the kcat [3] was “(8.2 ± 0.7) ×10^−3 s^−1” and the Km [4] was “(3.3 ± 0.7) ×10^3 μM”. The kcat [4] was “(5.2 ± 0.4) ×10^−3 s^−1”.
